Results taken from the MegaScale stability set (Tsuboyama et al. 2023).

B1: HEEH_KT_rd6_3546 (parent)
chain: SEEDKEREHWERLNRDFELRVLDTTFIAHHAEEVIKLLRWLEK
B2: 1ZHC (parent)
chain: HEFRDEISVLKANNPHFDKIFEKHNQLDDDIKTAEQQNASDAEVSHMKKQKLKLKDEIHSMIIEYREK

Variants of: B1
Assay: folding stability dG (cDNA display proteolysis); higher = more stable
Conditions: PBS, room temperature

Folding stability dG [kcal/mol] of substitutions, site by site:
E2: L 1.53; I 1.6; A 1.48; F 1.36; K 1.45; H 1.42; G 1.57; D 1.44
S1: T 1.4; Y 1.27; V 1.31; E 1.19; I 1.22; N 1.3; D 1.36; C 2.12; Q 1.5; W 1.16; K 1.18; A 1.28; P 1.43; L 1.35; H 1.35; F 1.13; R 1.36; G 1.51; M 0.916

Variants of: B2
Assay: as above
Conditions: PBS, room temperature

Folding stability dG [kcal/mol] of substitutions, site by site:
I63: M 1.4; W -0.039; Y 0.129; A 0.8; D -0.032; T 0.157; H 0.728; E 0.513; V 0.61; N 0.622; F 0.401; S 0.079; K 0.899; Q 1.12; R 0.974; C 1.17; L 1.24; G -0.621
E67: S 1.04; M 0.866; Y 0.933; N 1.26; T 1.38; G 0.605; D 0.551; R 1.3; F 0.916; W 0.996; V 0.889; Q 1.18; K 1.08; C 1.33; I 1.07; H 1.04; L 1.02; A 1.08
Y65: M 0.384; S -0.451; I 0.311; A 0.205; W 0.961; C -0.316; H 0.113; V -0.888; N -0.975; F 1.01; E -0.672; L 0.386; Q 0.149
D56: K 1.22; R 1.21; H 1.07; S 0.621; W 1.39; N 1.07; E 1.29; Y 1.5; I 1.25; F 1.18; V 1.02; M 1.57; G 0.971; C 1.36; T 0.838; L 1.61; A 1.27; Q 1.51
K51: R 1.29; L 2.36; F 1.65; C 0.855; I 1.3; G -0.631; E -0.779; W 1.57; S 0.403; A 0.915; Y 1.5; H 0.299; N -0.683; M 1.52; V 0.721; Q 0.766
K53: Q 0.53; A 1.12; N -0.015; H 0.266; R 0.995; E 0.543; L 1.16; V 0.811; S 0.351; I 0.711; D -0.039; C 0.879; Y 0.301; P -0.251; W 0.603; F 0.261; T 0.66; M 1.05
E64: R 0.669; I 0.119; V -0.038; W 0.701; N 0.583; C 0.731; G -0.85; Y 0.484; L 0.829; D 0.037; T 0.262; F 0.527; M 0.766; K 0.999; S 0.735; H 0.632; Q 0.969; A 1.31
R66: F 0.147; Y 0.091; Q 0.328; K 0.404; M 0.762; V 0.348; H 1.53; C 0.384; S -0.498; L 1.07; I 0.692; W 0.163
E57: A 0.703; T 0.674; Y 0.52; F -0.51; V 0.286; K 0.212; S -0.103; D -0.8; L 0.992; C 0.959; W 0.602; M 1.16; Q 0.719; R -0.034; I 0.87; H -0.994
K49: W 0.556; M 1.19; E 0.919; T 0.971; Y 1.2; D 0.75; I 1.18; F 0.439; C 1.11; Q 1.27; G 0.492; H 0.527; S 0.881; R 1.03; L 0.949; V 0.867; N 0.588; A 1.29
L54: Y 0.165; W -0.913; M -0.648; I -0.626; C -0.495
I62: H -0.624; W -0.3; V 0.282; L 0.874; F 0.011; M 0.117; C -0.713
I58: M 0.19; F 0.304; W -0.545; V -0.599; C 0.015; L 0.496; H -0.628; R -0.534
L52: H 0.494; Q 1.28; Y 0.359; V 0.329; M 1.28; K 0.948; G -0.063; I 0.913; A 1.08; D 1.02; C 0.71; N 0.952; E 1.17; T 0.288; W 0.394; F 0.588; S 0.812
M61: I 0.447; W -0.462; Y 0.306; F 0.209; C -0.322; A -0.996; H 0.422; L 0.762
S60: M 1.29; D 0.536; G 0.362; T 0.912; Y 0.561; K 1.51; H 0.79; E 0.466; N 0.933; C 1.18; W 0.696; A 1.48; R 1.65; V 0.267; Q 1.2; I 0.697; L 0.991; F 0.717
K68: E -0.339; L 0.469; T 0.49; S 0.62; V 0.338; N 0.792; D -0.648; R 1.2; Y 0.578; W 0.673; G 0.495; A 0.786; H 0.512; M 0.491; C 0.745; F 0.363; Q 0.861; I 0.298
Q50: E 0.976; W 0.792; K 0.22; Y 0.509; A 0.475; I 0.757; M 1; L 1.55; R 0.642; C 1.12; G -0.255; F 0.915; T 0.433; V 0.067; N -0.038; S -0.299; H 0.479
H59: M 1.92; S 0.624; E 1.21; V 1.3; F 1.43; K 0.399; Q 0.83; N 0.996; W 1.83; L 2.03; T 1.06; R 1.04; A 0.525; D 1.11; Y 1.61; I 1.83
K48: M 0.757; W 0.118; N -0.844; T 0.032; L 0.4; S -0.947; Y 0.617; Q 0.238; R 0.398; V 0.419
K55: T 0.273; F 1.65; L 1.45; N 0.726; M 1.72; S 1.14; V 0.758; D 0.359; R 1.51; H 1.27; I 1.09; A 1.67; W 2.94; Q 1.28; Y 1.47; G 0.766; E 0.926; C 2.15
